Results published in patent US20060045884A1, “Vaccines for autoimmune and infectious disease” (Board of Regents, priority 2004, published 2006).

Biological target: HLA-A2.1 heavy chain with I125-labeled β2-microglobulin (heterotrimer dissociation assay) (human)
Assay: dissociation of 125I-β2-microglobulin from the HLA-A2.1/peptide/β2m heterotrimer, HPLC gel filtration

## HTLV-1 Tax peptide (aa 11-19) (from UniProt P03409 11-19) (peptide; other documents disagree on this pair)
  T1/2: 5.56 days
